{"source": "paper PMC8187382", "about": "“The archaeal protein SepF is essential for cell division in Haloferax volcanii” (Nature Communications, 2021)", "proteins": {"B1": {"name": "SepF-His (H. volcanii SepF expressed in E. coli) (natural protein, Haloferax volcanii, UniProt D4H018 1-118, looked up)", "chain": "MGIMSKILGGGGSRTTEDYVELDLDDFDTARGDAGLSVHIAEIGGQQDVIAIKDAVYDGNLVIADITRHTTSDSTMEHIIDDLRQVAREVDGDIVQKGDDQIVITPTGISISRQKLNG", "notes": "SepF of Haloferax volcanii, encoded by hvo_0392, 118 amino acids, 12.6 kDa; sepF amplified from genomic DNA of strain H26 and cloned by FX-cloning; FX-cloning may leave extra residues at the ends; also called purified SepF; Hvo_0392"}}, "biological_target": "the molecule itself", "test": "SEC; 500 µl freshly purified SepF-His on Superdex 200 10/300 GL in Buffer A (1.5 M KCl, 100 mM NaCl, 50 mM HEPES, 1 mM DTT, pH 7.5), 0.5 ml/min; gel filtration standard run under the same conditions; no protein eluted at volumes of higher oligomers", "data": [{"protein": "B1", "values": [{"measurement": "stoichiometry N", "result": 2}]}]}
